Test results reported in patent US20220041711A1.

target: cyno LAIR-1-Fc (cynomolgus monkey); assay: ELISA blocking: plate coated with 5 µg/mL human collagen type 1, antibody titrated, 1 µg/mL biotinylated cyno LAIR-1-Fc, streptavidin-HRP, OD650
Sequence (chain, as listed by the source limits assumed, form in doubt): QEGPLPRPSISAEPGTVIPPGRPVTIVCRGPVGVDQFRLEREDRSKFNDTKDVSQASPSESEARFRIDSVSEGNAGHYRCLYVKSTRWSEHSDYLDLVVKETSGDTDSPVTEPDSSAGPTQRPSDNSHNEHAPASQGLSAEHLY

Row | IC50 (read off the curve) [nM] | Binder
1 | 3 | anti-LAIR-1 antibody ch47H1 (antibody, V domains shown) VH: EVQLVETGGGLVQPKGSLKLSCAASGFTFNINAMNWVRQAPGKGLEWVARIRTKNNNYATFYADSVKDRFTISRDDSQSMLYLQMNNLKTDDTAMYYCVRDRAGFFAYWGQGTPVTVSA VL: DIQMTQSPASQSASLGESVTITCLASQTIGTWLGWYRQKPGKSPQLLIYAATSLADGVPSRFSGSGSGTKFSFKISSLQAEDFVIYYCQQLYSTPLTFGSGTKLEIK
2 | 3 | anti-LAIR-1 antibody ch62G10 (antibody, V domains shown) VH: EVQLVETGGGLVQPKGSLKLSCATSGFTFNINAMNWVRQAPGKGLEWVARIRTKNNNFATYYADSVKDRFTISRDDSQSMLYLQMNNLKTEDTAMYYCVRGPYFDYWGQGTTLTVSS VL: DIQMTQSPASQSASLGESVTITCLASQTIGTWLAWYQQKPGKSPQLLIYAATSLADGVPSRFSGSGSGTKFSFKISNLQAEDFVTYYCQQLYSTPYTFGGGTKLEIK
3 | 3 | humanized anti-LAIR-1 antibody Hz47H1.v4 (antibody, human IgG1, kappa, N297G, V domains shown) VH: EVQLVESGGGLVQPGGSLRLSCAASGFTFNINAMNWVRQAPGKGLEWVARIRTKNYNYATFYADSVKDRFTISRDDSKNSLYLQMNSLKTEDTAVYYCVRDRAGFFAYWGQGTTVTVSS VL: DIQMTQSPSSLSASVGDRVTITCLASQTIGTWLGWYQQKPGKAPKLLIYAATSLAEGVPSRFSGSGSGTDFTLTISSLQPEDFATYYCQQLYSTPLTFGGGTKVEIKR
4 | 3 | humanized anti-LAIR-1 antibody Hz62G10.v1 (antibody, human IgG1, kappa, N297G, V domains shown) VH: EVQLVESGGGLVKPGGSLRLSCAASGFTFNINAMNWVRQAPGKGLEWVARIRTKNNNFATYYADSVKDRFTISRDDSKNTLYLQMNSLKTEDTAVYYCVRGPYFDYWGQGTLVTVSS VL: DIQMTQSPSSLSASVGDRVTITCLASQTIGTWLAWYQQKPGKAPKLLIYAATSLADGVPSRFSGSGSGTDFTLTISSLQPEDFATYYCQQLYSTPYTFGGGTKVEIKR
5 | 6 | anti-LAIR-1 antibody ch57D12 (antibody, V domains shown) VH: QVQLQQSGAELARPGASVNLSCRASGYSFTSFGISWVKQRTGQGLEWIGEIYPRSDNTFYNEKFKGKATLTADKSSSTAYMELRSLTSEDSAVYFCARHFGSSSFDYWGQGTTLTVSS VL: ENVLTQSPPIMAASLGQKVTMTCSASSSVSSIYFHWYQQKSGTSPKPLIHRASNLASGVPARFSGSGSGTSYSLTISSVEAEDDATYYCQQWSGYPLTFGGGTKLEIK
